Test results from article PMC8703375, “Polar Interactions at the Dimer–Dimer Interface of Methionine Adenosyltransferase MAT I Control Tetramerization” (International Journal of Molecular Sciences, 2021).
Values joined by “and” are separate entries in the source; they are usually repeats but may differ in a detail not shown here. Equal values may be shown once.

B1: wild-type MATα1 (SSRL), rat methionine adenosyltransferase catalytic subunit (enzyme)
chain: not shown
notes: methionine adenosyltransferase catalytic subunit MATα1, rat; the rat MATα1 ORF in plasmid pSSRL-T7N; Found as homo-dimers (MAT III) and homo-tetramers (MAT I) in an equilibrium that depends on protein concentration; also called MAT I (homo-tetramer); MAT III (homo-dimer); source: E. coli BL21(DE3), IPTG-induced, in soluble fraction
B2: MATα1 Q81T mutant (enzyme)
chain: not shown
notes: methionine adenosyltransferase catalytic subunit MATα1, rat; ORF of pSSRL-T7N with a point mutation; source: E. coli BL21(DE3), IPTG-induced, in soluble fraction
B3: MATα1 R85L mutant (enzyme)
chain: not shown
notes: as for B2
B4: MATα1 T63V mutant (enzyme)
chain: not shown
notes: as for B2
B5: MATα1 N106A mutant (enzyme)
chain: not shown
notes: as for B2
B6: MATα1 R85L–T63V double mutant (enzyme)
chain: not shown
notes: methionine adenosyltransferase catalytic subunit MATα1, rat; ORF of pSSRL-T7N with two point mutations; source: E. coli BL21(DE3), IPTG-induced, in soluble fraction
B7: MATα1 R85L–E112L double mutant (enzyme)
chain: not shown
notes: as for B6
B8: MATα1 E112L mutant (enzyme)
chain: not shown
notes: as for B2
B9: MATα1 R85E mutant (enzyme)
chain: not shown
notes: as for B2

Biological target: the molecule itself
Assay: SEC; analytical gel filtration (AGFC): soluble fractions of E. coli at 0.5 mg/mL (100 µL) on Superose 12 10/30 HR in 50 mM Tris/HCl pH 8, 10 mM MgSO4, 1 mM EDTA, 150 mM KCl, 0.3 mL/min; fractions read by dot-blot with anti-MATα1 antiserum; homo-dimers and homo-tetramers separated by size
With B1 the “stoichiometry N” value was 2 and 4.

Biological target: the molecule itself
Assay: hydrophobic chromatography on phenyl Sepharose; soluble fractions of E. coli at 0.5 mg/mL (2 mL) on phenyl Sepharose in 50 mM Tris/HCl pH 8, 10 mM MgSO4, 1 mM EDTA; tetramers in the flowthrough, dimers eluted with 50% (v/v) DMSO; dot-blot with anti-MATα1 antiserum, dimer/tetramer ratio by densitometry
With B2 the “stoichiometry N” value was 4. In the case of B3, the “stoichiometry N” value is reported as 2 and 4. B4 was tested, and the “stoichiometry N” value was 2. B5 was tested, and the “stoichiometry N” value was 4. For B6, the “stoichiometry N” value was 2. With B7 the “stoichiometry N” value was 2. In the case of B8, the “stoichiometry N” value is reported as 4. With B9 the “stoichiometry N” value was 2.
